In the test the test system is ob/ob mice. Nature of the test: Body weight of ob/ob mice treated with recombinant leptin. The settings on record: 0.1 mg/mouse or 0.25 mg/mouse daily. The test is classed as in vivo. As to the method:
As a control, we tested the ability of recombinant leptin to reduce body weight in ob/ob mice using either 0.1 mg/mouse or 0.25 mg/mouse daily.

From patent publication US20110288011A1, “PEPTIDE THERAPEUTIC CONJUGATES AND USES THEREOF” (priority 2008, published 2011) come the findings set out here.

B1: recombinant leptin: recombinant leptin used as a control in ob/ob mice (protein, UniProt P41160 22-167, looked up)
Leptin: VPIQKVQDDTKTLIKTIVTRINDISHTQSVSAKQRVTGLDFIPGLHPILSLSKMDQTLAVYQQVLTSLPSQNVLQIANDLENLRDLLHLLAFSKSCSLPQTSGLQKPESLDGVLEASLYSTEVVALSRLQGSLQDILQQLDVSPEC
B1: the body weight entry is “reduce body weight in these mice in a dose-dependent manner”.
